B2: Nxf2[541–841], recombinant (domain or fragment)
chain: LPSEYVRAVKEVFPQLTTLDGVDLQTNPGQSLQKNFLCDTGAYELVGAFLENYLREFENDEFRHNLYKYYSENSIFTLTCNYNVVQNHQTPKILQRLSKYNRHARNLRNKDYSKASDGVFFGCTYIVEILLQLPRVTHDFHSLQTDVMHYNGKGAVIYVAGLLRDEPPSTRNGHGSKTDIGGVLLGFSRQFVVTFDEANLGLGKRARRLKIANERLHITNPSKTAIRNAFSVNFPDPSERQAEEDSLDVKDHKLLLFQEVTGLISTWVTSIVEEADWDFERALKLFIQKNADHEIPDLAFA

Data set [1] deals with Ctp expressed in isolation with a His6-SUMO tag (for ITC) (Drosophila melanogaster, UniProt Q24117 1-89). Description: ITC.
Data set [2] addresses Drosophila melanogaster Ctp (residues 1–89), untagged, coexpressed with Panx peptides (Drosophila melanogaster, UniProt Q24117 1-89). The data set can be described thus: SEC-MALS. Background: SEC sorts molecules by how far they enter the pores of the column.
The target in data set [3] is B2. Description: SEC-MALS.
A further data set addresses Nxt1, recombinant (Drosophila melanogaster, UniProt Q9V3H8 1-133). Description: SEC-MALS.
The data set “SEC-MALS” concerns the molecule itself. Description: SEC-MALS.

The values that follow come from paper PMC7919418 (Genes & Development, 2021).

As for TLYKNAATQTER [Panx peptide residues 455–466 (Panx1)], in data set [1], the Kd (commonly the free concentration of one partner at which half of the binding sites on the other are occupied at equilibrium, for simple one-to-one binding) is approximately 75 nM. For the same molecule, in data set [2], the stoichiometry N (commonly a count of units in the complex or per binding partner) is 2 Panx peptides per Ctp homodimer.

In the case of TLYKNAATQTERRTATRDAGTQVRLE [Panx peptide residues 455–480 (Panx1 + 2)], in data set [2], the “stoichiometry N” value was 1 Panx peptide per Ctp homodimer.

For the molecule RTATRDAGTQVRLE [Panx peptide residues 467–480 (Panx2)], the Kd in data set [1] was approximately 140 nM. Also, the “stoichiometry N” value in data set [2] was 2 Panx peptides per Ctp homodimer.

B1: Panx[263–541], recombinant, coexpressed in SFiNX[wild type] (domain or fragment)
chain: ASSQNESSKERKLRDTELDYVPVRPDEHFIRPIKFSNLIERRPPQVEFNTVNLSKADKRSLAVARAELVLEQIQQKANKEEPPEFHMVDTICKLPVNESFRNQDCFENPSPICNNMNVVYKFNSTPGTRIDLSKWGLETVPEATKRLLRLLGIDVARLKELQSTVKPSQRILKLKKEQLEQGLAPTEEQETATLYKNAATQTERRTATRDAGTQVRLESKLNGAFWQNPHFDPMNLTQHQSNVMLALQEIYQTLPSATMAVKLSRALAPALAIIKGRQP
In the case of B1, the binding result in data set [3] is on record as “binds”.

For the molecule B2, in the data set with Nxt1, recombinant, the binding result is listed as “binds”.

B3: His6-Ctp, recombinant, coexpressed in SFiNX complexes (natural protein)
chain: MSDRKAVIKNADMSEEMQQDAVDCATQALEKYNIEKDIAAYIKKEFDKKYNPTWHCIVGRNFGSYVTHETRHFIYFYLGQVAILLFKSG
For B3, the “stoichiometry N” value in the data set “SEC-MALS” was found to be 2.
